In data set [1] the target is T1, wild type MED1-peptide SPAYTPQNLD
T1 chain: SPAYTPQNLD

For data set [2], the target named is T2, Human Recombinant GST-MED1 protein (aa1391-1490), Q15648.
T2 chain: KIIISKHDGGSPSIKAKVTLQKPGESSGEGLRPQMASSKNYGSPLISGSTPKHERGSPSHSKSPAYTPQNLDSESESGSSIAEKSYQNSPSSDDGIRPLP

Data set [3] has as its target T3, mutant MED1-peptide SPAYAPQNLD
T3 chain: SPAYAPQNLD

The target in data set [4] is T4, MED1 (endogenous, phosphorylated upon DHT stimulation) (Homo sapiens, UniProt Q15648 1-1581, phosphothreonine at T1457 and T1032 (DHT-induced)).
T4 construct: Endogenous protein immunoprecipitated with an anti-MED1 antibody (Bethyl A300-793A) from nuclear extracts; also called p-MED1; TRAP220
T4 sequence (Q15648 whole entry): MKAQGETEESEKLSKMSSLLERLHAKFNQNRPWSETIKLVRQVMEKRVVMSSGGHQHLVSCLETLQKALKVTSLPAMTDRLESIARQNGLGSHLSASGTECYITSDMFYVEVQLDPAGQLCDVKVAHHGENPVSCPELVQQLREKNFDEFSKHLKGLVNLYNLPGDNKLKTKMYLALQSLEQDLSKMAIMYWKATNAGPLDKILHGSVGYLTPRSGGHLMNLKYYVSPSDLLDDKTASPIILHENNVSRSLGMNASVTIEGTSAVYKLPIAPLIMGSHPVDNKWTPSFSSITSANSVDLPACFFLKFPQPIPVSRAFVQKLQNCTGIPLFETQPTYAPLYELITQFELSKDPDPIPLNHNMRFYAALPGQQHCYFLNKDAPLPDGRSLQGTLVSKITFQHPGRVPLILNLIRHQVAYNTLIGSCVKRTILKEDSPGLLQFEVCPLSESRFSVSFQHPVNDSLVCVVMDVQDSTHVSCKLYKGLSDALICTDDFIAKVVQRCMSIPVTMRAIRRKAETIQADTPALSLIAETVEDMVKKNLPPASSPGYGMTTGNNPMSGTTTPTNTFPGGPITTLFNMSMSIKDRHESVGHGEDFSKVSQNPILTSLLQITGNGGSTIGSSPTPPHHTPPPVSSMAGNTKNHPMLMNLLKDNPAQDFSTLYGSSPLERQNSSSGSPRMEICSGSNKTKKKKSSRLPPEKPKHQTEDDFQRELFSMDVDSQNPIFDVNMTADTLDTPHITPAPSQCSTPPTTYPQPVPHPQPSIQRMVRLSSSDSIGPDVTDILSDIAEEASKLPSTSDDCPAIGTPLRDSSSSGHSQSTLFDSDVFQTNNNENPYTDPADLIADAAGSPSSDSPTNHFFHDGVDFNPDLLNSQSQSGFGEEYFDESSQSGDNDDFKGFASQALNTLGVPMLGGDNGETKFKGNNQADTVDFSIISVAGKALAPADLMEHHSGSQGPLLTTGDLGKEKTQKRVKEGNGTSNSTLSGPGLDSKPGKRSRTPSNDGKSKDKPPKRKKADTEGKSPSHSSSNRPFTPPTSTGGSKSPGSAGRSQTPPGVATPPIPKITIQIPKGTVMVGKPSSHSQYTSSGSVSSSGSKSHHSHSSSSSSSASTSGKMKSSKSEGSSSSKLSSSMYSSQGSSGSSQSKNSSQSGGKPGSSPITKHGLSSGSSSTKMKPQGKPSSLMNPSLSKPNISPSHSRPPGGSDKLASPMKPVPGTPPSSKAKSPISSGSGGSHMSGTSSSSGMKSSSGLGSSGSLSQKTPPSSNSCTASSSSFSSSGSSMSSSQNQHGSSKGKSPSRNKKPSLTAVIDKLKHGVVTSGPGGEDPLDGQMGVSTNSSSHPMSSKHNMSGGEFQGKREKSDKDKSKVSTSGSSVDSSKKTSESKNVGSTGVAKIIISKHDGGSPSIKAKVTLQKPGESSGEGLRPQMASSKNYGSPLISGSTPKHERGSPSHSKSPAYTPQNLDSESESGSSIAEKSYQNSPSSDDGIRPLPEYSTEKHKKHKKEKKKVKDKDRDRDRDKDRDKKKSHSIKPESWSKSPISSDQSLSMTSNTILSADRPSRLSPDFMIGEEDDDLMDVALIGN
Nature of the data set: reciprocal co-immunoprecipitation from LNCaP and VCaP nuclear lysates with MED1 and CDK7 antibodies (FIGS. 5c, 5d).

B1: CAK complex-CDK7/CyclinH/MAT1 enzyme (recombinant, BPS Bioscience) (protein)
chain 1: ALDVKSRAKRYEKLDFLGEGQFATVYKARDKNTNQIVAIKKIKLGHRSEAKDGINRTALREIKLLQELSHPNIIGLLDAFGHKSNISLVFDFMETDLEVIIKDNSLVLTPSHIKAYMLMTLQGLEYLHQHWILHRDLKPNNLLLDENGVLKLADFGLAKSFGSPNRAYTHQVVTRWYRAPELLFGARMYGVGVDMWAVGCILAELLLRVPFLPGDSDLDQLTRIFETLGTPTEEQWPDMCSLPDYVTFKSFPGIPLHHIFSAAGDDLLDLIQGLFLFNPCARITATQALKMKYFSNRPGPTPGCQLPRPNCPVETLKEQSNPALAIKRKRTEALEQGGLPKKLIF
chain 2: YHNSSQKRHWTFSSEEQLARLRADANRKFRCKAVANGKVLPNDPVFLEPHEEMTLCKYYEKRLLEFCSVFKPAMPRSVVGTACMYFKRFYLNNSVMEYHPRIIMLTCAFLACKVDEFNVSSPQFVGNLRESPLGQEKALEQILEYELLLIQQLNFHLIVHNPYRPFEGFLIDLKTRYPILENPEILRKTADDFLNRIALTDAYLLYTPSQIALTAILSSASRAGITMESYLSESLMLKENRTCLSQLLDIMKSMRNLVKKYEPPRSEEVAVLKQKLERCHSAELALNVITKKRKGYEDDDYVSKKSKHEEEEWTDDDLVESL
chain 3: DDQGCPRCKTTKYRNPSLKLMVNVCGHTLCESCVDLLFVRGAGNCPECGTPLRKSNFRVQLFEDPTVDKEVEIRKKVLKIYNKREEDFPSLREYNDFLEEVEEIVFNLTNNVDLDNTKKKMEIYQKENKDVIQKNKLKLTREQEELEEALEVERQENEQRRLFIQKEEQLQQILKRKNKQAFLDELESSDLPVALLLAQHKDRSTQLEMQLEKPKPVKPVTFSTGIKMGQHISLAPIHKLEEALYEYQPLQIETYGPHVPELEMLGRLGYLNHVRAASPQDLAGGYTSSLACHRALQDAFSGLFWQPS
On to B1, for which the “luminescence based kinase assay (ADP-Glo)” value is recorded as “CDK7-mediated phosphorylation of the T1457 wildtype peptide was inhibited by THZ1 treatment in a dose-dependent manner” in data set [1] and “CDK7 exhibited no activity towards the T1457A mutant peptide” in data set [3]. Further, in data set [2], the “in vitro kinase assay, immunoblot of the reaction mixtures” value is recorded as “we observed Threonine phosphorylation, specifically at T1457, which was completely inhibited by THZ1”.

B2: CDK7 (endogenous) (enzyme, human, UniProt P50613 2-346, looked up)
chain: B1 chain 1
notes: Detected or immunoprecipitated with anti-CDK7 (Cell Signaling 2916s); also called cyclin-dependent-kinase 7
For the molecule B2, in data set [4], the binding result was “binds”.

These data come from US20220288067A1 (University of Pennsylvania, published 2022).
